Assays:
[1] = test system: Bovine gamma globulin (BGG) (Bos taurus); assay: FP; conditions: control protein
[2] = target: T1, Carcinoembryonic antigen (CEA) (Homo sapiens, UniProt P06731 P06731:35-685); assay: FP; physiological binding buffer; conditions: tags: Calbiochem; label: 5'-fluorescein
Excerpt: (§1) A fluorescent polarization (FP) assay was used to test the affinity of several oligonucleotide sequences to CEA (Table 4). The initial studies focused on 5 oligonucleotides. Clone 22 and clone 26 contained the sequences with the highest identity to the G-rich motif. The aptamers were synthesized with fluorescein at their 5′ ends and binding was analysis using the Beacon 2000 instrument equipped with a 530 nm emission filter and a 490 nm excitation filter from Pan Vera Corp. (Madison Wis.).
(§2) In the FP assay, fluorescently labelled aptamers are added to the protein. Binding is detected by an increase in fluorescent polarization cause by the decrease in rotation of the protein bound fluorescein (FIG. 4A). The Kd is calculated by determining the CEA concentration at the half maximal mP value as determined from plots of averaged stable mP data as shown in FIGS. 4B and C. […] Unfortunately, others members of the CEA superfamily are not available commercially.

[3] = target: Bovine serum albumin (BSA) (Bos taurus, UniProt P02769 P02769:25-607); assay: FP; control protein; conditions: label: 5'-fluorescein
Chain of Bovine serum albumin (BSA) (P02769 25-607, one chain of several): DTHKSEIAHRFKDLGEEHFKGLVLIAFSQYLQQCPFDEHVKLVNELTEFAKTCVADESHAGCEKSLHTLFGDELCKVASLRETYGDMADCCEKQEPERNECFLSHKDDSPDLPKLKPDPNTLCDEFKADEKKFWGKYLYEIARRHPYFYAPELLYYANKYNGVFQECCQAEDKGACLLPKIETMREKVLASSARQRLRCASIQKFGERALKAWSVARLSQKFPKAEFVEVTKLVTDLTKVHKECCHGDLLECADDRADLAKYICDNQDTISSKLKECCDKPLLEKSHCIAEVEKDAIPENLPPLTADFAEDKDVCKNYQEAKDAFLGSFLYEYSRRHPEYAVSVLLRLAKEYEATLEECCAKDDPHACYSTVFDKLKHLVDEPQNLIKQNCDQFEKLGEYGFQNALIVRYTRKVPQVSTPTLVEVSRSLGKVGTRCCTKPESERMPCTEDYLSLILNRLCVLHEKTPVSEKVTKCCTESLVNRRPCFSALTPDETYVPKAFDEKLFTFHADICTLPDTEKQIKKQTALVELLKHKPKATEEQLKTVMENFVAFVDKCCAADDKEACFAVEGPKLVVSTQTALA
Excerpt: as §1, §2

[4] = target: T1, Carcinoembryonic antigen (CEA); assay: FP; physiological binding buffer; table header prints nM-1, text nM; conditions: tags: Calbiochem; label: 5'-fluorescein
Excerpt: as §1, §2
FIG. 4. Binding of clone26bases 1-50 to CEA monitored by FP in a physiological binding buffer using 4 nM aptamer. (A) Shown is the mP as a function a reading number (sample #). CEA (8 nM) was added after the tenth reading. (B) Shown is the average mP vs aptamer concentration. (C) Shown is the average mP vs CEA concentration within the linear range.

[5] = target: T1, Carcinoembryonic antigen (CEA); assay: FP; primer region absent; physiological binding buffer; conditions: tags: Calbiochem; label: 5'-fluorescein
Excerpt: as §1, §2

T1 sequence (P06731 35-685, one chain of several): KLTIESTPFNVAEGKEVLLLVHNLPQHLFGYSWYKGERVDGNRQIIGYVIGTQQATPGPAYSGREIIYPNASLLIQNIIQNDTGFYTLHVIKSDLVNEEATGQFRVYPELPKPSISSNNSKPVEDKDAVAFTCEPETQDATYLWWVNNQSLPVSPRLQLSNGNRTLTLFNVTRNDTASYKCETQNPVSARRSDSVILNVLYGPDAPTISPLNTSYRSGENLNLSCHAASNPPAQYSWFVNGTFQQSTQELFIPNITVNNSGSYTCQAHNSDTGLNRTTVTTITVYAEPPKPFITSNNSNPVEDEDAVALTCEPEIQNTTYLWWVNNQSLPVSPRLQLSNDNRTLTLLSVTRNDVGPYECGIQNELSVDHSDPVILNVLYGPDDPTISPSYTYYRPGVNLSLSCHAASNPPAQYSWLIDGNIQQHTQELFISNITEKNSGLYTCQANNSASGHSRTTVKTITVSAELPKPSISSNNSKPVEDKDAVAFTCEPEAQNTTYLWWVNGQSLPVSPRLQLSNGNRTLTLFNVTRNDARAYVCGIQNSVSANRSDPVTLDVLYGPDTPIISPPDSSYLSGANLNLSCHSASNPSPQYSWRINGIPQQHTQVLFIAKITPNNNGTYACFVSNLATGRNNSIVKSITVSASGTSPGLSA

Molecule | Kd [1] | Kd [3] | also measured
ATACCAGCTTATTCAATTGGGGGAGGGGGCGACGCGATACCC [clone22bases1-42] | 500 nM | – | –
ATACCAGCTTATTCAATTGGGGTAGGGGGCGAAGCGATACCCTAATCAGC [clone26bases1-50] | 100 nM | – | –
ATACCAGCTTATTCAATT [5' primer] | 400 nM | – | –
GGGGGAGGGGGCGACGCGATACCC [clone22bases19-42] | 250 nM | – | –
ATACCAGCTTATTCAATTGGGGGAGGGGGCGACGCGATACCC (ssDNA) [clone22bases1-42] | – | 200 nM | Kd [2]: 5 nM
ATACCAGCTTATTCAATT (ssDNA) [5' primer] | – | 300 nM | Kd [2]: 5 nM
ATACCAGCTTATTCAATTGGGGTAGGGGGCGAAGCGATACCCTAATCAGC (ssDNA) [clone26bases1-50] | – | 100 nM | Kd [4]: 4 nM
GGGGGAGGGGGCGACGCGATACCC (ssDNA) [clone22bases19-42] | – | 400 nM | Kd [5]: 20 nM
